Laboratory results as given in patent US20180030119A1.

What was measured:
[1] = target: F protein of RSV reference strain RSV-A Long (ATCC VR-26), on virus (RSV-A Long (ATCC VR-26)) (UniProt P12568); assay: cell-based or functional assay
[2] = target: F protein of RSV reference strain RSV-B (ATCC VR 1580), on virus (RSV-B (ATCC VR 1580)) (UniProt P13843); assay: cell-based or functional assay
[3] = target: F protein on intact RSV particles (Example 11, strain not stated) (RSV, strain not stated); assay: competition ELISA: RSV particles pre-incubated with inhibiting mAb at 20 ug/mL, then added to plates coated with AR201 (competitor)
[4] = target: F protein on intact RSV particles (Example 11, strain not stated) (RSV, strain not stated); assay: competition ELISA: RSV particles pre-incubated with inhibiting mAb at 20 ug/mL, then added to plates coated with palivizumab (competitor, self)
[5] = target: F protein on intact RSV particles (Example 11, strain not stated) (RSV, strain not stated); assay: competition ELISA: RSV particles pre-incubated with control IgG at 20 ug/mL, plates coated with AR201; this is the reference set to 100 %
[6] = target: F protein on intact RSV particles (Example 11, strain not stated) (RSV, strain not stated); assay: competition ELISA: RSV particles pre-incubated with control IgG at 20 ug/mL, plates coated with palivizumab; this is the reference set to 100 %

F protein of RSV reference strain RSV-A Long (ATCC VR-26), on virus (RSV-A Long (ATCC VR-26)), sequence (P12568 26-574): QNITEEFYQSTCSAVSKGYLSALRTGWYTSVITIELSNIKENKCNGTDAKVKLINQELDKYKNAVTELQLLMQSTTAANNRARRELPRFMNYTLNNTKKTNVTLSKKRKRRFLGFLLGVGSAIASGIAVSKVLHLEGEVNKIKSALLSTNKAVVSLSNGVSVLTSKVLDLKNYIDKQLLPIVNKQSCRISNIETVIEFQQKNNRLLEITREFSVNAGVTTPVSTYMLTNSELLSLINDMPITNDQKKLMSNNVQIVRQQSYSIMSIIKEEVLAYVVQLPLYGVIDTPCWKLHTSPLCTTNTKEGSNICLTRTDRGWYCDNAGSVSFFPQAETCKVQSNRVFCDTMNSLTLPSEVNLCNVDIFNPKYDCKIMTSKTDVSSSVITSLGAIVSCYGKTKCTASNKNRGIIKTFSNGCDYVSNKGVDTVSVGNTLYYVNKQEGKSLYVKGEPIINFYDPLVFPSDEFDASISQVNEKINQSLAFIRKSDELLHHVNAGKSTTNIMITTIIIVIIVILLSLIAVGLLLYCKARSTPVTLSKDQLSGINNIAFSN
F protein of RSV reference strain RSV-B (ATCC VR 1580), on virus (RSV-B (ATCC VR 1580)), sequence (P13843 26-574): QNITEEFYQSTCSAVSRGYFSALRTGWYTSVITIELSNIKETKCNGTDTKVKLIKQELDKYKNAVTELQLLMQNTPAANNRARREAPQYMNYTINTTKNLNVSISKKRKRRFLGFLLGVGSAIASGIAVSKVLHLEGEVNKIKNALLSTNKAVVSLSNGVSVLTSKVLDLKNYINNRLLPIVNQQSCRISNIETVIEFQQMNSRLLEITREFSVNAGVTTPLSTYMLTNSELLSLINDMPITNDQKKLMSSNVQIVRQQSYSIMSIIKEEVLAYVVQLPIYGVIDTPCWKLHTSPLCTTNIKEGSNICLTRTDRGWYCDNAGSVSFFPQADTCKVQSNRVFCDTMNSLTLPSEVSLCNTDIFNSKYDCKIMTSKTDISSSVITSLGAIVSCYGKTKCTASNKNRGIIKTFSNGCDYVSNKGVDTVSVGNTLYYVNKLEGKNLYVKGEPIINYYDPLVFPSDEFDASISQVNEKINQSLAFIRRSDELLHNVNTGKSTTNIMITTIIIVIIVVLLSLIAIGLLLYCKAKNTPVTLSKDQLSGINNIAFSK

Substance: palivizumab (antibody)
- Estimated half-maximal effective antibody concentration (ng/mL), plaque neutralisation on Vero cells [1]: 100 ng/mL
- Estimated half-maximal effective antibody concentration (ng/mL), plaque neutralisation on Vero cells [2]: 200 ng/mL
- binding of RSV to the coated mAb, % of binding with control IgG [3]: 29.2%
- binding of RSV to the coated mAb, % of binding with control IgG [4]: 35.3%

Substance: unrelated fully human monoclonal IgG1 antibody (control)
- Estimated half-maximal effective antibody concentration (ng/mL), plaque neutralisation on Vero cells [1]: > 1000 ng/mL
- Estimated half-maximal effective antibody concentration (ng/mL), plaque neutralisation on Vero cells [2]: > 1000 ng/mL
- binding of RSV to the coated mAb, % of binding with control IgG [5]: 100%
- binding of RSV to the coated mAb, % of binding with control IgG [6]: 100%
